# Values of other authors as cited in US4636489A, “Modified protease inhibitors, process for their preparation, and pharmaceutical compositions prepared therefrom” (Plantorganwerk KG, priority 1983, dated 1987).
# Experiments:
# [1] = system: subtilisin
# [2] = system: PMN-granulocyte elastase
# [3] = system: chymotrypsin
# [4] = system: pancreaselastase
# [5] = system: trypsin
# [6] = system: cathepsin G
molecule,measurement,setting,value
"eglin C: protease inhibitor from leech extracts consisting of 70 amino acid radicals, described in DE-OS No. 28 08 396 (protein, UniProt P01051 1-70, looked up) Eglin C: TEFGSELKSFPEVVGKTVDQAREYFTLHYPQYDVYFLPEGSPVTLDLRYNRVRVFYNPGTNVVNHVPHVG",inhibition of subtilisin,[1],strongly inhibit
same,inhibition of PMN-granulocyte elastase,[2],strongly inhibit
same,inhibition of chymotrypsin,[3],strongly inhibit
same,inhibition of pancreaselastase,[4],only poor inhibitors
same,inhibition of trypsin,[5],only poor inhibitors
same,inhibition of cathepsin G,[6],strongly inhibit
